The source of these data is patent publication US20240392262A1, “TRANSPOSASE AND USES THEREOF” (Poseida Therapeutics, Inc., published 2024).

Conditions in all cases: tags: 3xFlag, SV40 NLS
For one data set, the target named is T1, PAH4 Left TAL-PBx (synthetic construct).
T1 chain: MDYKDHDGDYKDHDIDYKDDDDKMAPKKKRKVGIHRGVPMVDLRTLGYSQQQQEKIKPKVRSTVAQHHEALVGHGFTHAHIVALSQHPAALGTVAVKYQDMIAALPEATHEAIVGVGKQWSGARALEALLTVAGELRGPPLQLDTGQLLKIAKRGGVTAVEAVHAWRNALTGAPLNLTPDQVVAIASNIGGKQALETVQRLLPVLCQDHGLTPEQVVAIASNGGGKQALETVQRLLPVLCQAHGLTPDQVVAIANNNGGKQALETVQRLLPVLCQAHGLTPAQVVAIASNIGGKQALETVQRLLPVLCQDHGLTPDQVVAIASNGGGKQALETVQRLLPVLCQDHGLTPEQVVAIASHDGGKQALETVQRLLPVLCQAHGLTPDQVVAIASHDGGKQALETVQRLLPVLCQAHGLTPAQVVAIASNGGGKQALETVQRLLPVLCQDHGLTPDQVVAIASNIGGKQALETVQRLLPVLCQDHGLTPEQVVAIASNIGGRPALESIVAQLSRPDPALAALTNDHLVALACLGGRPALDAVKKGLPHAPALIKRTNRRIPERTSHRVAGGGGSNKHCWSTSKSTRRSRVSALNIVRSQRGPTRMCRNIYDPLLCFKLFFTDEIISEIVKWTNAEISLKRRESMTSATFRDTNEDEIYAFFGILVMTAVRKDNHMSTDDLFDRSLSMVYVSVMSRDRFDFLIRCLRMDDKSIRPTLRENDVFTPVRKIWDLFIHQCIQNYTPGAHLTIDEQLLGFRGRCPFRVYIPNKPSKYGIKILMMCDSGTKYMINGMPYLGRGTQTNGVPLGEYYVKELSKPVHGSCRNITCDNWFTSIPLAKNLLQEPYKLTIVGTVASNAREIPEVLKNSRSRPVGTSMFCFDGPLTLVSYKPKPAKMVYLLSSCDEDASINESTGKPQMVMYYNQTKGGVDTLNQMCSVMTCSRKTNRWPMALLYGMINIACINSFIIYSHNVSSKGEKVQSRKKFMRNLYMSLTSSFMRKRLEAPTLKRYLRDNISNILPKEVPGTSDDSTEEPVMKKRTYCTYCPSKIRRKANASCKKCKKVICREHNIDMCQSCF
Description: cell_activity; left only.

In a further data set the target is T2, PAH4 Right TAL-PBx (synthetic construct).
T2 chain: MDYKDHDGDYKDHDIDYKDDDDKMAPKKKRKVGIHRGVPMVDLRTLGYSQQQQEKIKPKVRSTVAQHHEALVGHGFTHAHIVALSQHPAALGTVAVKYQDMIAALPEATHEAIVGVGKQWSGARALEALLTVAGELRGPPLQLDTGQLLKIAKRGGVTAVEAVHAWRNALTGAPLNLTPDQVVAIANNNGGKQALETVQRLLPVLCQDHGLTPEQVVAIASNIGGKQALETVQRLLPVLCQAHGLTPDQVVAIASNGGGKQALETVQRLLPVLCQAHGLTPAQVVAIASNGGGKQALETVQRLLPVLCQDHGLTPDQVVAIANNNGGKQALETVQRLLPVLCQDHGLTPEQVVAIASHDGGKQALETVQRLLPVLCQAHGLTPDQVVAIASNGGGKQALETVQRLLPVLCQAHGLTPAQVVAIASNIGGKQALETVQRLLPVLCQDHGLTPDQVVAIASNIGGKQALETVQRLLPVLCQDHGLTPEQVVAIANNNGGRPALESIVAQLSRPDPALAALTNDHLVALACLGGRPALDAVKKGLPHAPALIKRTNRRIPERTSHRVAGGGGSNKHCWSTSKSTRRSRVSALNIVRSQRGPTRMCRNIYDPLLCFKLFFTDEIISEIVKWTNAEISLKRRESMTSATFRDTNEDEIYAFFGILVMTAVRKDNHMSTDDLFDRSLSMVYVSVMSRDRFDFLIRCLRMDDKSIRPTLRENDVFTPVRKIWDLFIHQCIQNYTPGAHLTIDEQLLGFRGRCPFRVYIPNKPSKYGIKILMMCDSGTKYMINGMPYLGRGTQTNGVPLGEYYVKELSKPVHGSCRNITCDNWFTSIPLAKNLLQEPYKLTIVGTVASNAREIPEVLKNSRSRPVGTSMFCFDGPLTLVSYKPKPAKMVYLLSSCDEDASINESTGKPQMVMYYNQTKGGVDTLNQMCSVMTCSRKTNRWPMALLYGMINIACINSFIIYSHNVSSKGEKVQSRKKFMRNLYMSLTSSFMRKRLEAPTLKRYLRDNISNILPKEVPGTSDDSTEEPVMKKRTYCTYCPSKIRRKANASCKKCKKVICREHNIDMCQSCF
Description: cell_activity; right only.

Another data set deals with T3, PAH5 Left TAL-PBx (synthetic construct).
T3 chain: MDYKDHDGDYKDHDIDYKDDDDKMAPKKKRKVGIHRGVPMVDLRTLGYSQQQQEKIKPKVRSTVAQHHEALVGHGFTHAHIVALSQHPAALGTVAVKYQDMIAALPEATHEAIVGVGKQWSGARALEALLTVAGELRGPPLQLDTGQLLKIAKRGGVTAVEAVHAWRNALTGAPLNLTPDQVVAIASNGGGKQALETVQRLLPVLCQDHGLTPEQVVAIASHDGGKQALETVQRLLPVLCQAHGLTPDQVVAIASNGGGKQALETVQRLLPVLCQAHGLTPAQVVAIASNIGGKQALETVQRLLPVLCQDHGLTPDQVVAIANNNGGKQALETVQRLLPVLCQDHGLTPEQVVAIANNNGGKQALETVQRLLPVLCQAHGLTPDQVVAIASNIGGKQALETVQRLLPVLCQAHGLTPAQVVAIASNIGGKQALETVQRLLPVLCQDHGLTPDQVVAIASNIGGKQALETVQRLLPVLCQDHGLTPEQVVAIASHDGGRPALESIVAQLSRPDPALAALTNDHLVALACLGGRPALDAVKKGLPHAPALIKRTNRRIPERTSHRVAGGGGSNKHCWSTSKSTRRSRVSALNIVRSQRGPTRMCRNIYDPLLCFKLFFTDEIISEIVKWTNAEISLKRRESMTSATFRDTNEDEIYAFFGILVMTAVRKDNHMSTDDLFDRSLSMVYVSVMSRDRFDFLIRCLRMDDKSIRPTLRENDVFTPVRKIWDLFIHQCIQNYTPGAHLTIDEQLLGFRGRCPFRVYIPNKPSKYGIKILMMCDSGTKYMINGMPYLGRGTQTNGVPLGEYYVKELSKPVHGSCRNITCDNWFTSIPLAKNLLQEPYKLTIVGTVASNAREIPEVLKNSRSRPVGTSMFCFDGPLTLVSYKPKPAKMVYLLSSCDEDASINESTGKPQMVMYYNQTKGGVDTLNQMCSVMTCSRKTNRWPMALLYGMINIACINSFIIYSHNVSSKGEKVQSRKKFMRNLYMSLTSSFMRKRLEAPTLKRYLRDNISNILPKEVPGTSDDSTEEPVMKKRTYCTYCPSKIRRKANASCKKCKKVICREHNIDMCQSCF
Description: cell_activity; left only.

For the next data set, the target named is T4, PAH5 Right TAL-PBx (synthetic construct).
T4 chain: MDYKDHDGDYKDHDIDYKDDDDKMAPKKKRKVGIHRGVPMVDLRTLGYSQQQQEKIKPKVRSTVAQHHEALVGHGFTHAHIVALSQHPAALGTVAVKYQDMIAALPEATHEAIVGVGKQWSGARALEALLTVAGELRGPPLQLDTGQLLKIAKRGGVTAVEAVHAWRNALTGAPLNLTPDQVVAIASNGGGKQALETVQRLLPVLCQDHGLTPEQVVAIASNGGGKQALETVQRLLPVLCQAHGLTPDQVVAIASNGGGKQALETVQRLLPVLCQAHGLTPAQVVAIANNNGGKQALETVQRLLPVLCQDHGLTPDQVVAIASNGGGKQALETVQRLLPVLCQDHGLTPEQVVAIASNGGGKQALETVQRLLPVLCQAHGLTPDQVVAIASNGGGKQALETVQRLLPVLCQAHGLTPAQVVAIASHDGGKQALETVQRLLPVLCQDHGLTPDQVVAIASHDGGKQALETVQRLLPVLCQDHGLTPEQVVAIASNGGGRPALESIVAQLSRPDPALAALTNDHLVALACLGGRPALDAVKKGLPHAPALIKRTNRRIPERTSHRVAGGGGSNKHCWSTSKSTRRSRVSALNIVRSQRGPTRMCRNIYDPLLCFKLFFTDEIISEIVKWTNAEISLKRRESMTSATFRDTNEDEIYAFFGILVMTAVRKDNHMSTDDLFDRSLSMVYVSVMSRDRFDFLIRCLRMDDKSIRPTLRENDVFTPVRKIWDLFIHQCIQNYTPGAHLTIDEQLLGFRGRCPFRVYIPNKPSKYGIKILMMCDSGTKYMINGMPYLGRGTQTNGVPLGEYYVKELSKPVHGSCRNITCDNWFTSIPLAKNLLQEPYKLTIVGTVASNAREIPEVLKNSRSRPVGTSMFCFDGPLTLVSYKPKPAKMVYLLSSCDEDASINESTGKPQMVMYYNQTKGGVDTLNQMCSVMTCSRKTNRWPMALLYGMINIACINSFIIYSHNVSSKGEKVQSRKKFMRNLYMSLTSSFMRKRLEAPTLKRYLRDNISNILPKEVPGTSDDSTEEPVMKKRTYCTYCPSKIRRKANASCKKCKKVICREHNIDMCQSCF
The experiment in a line: cell_activity; right only.

B1: PAH4 target (dsDNA)
DNA 1: TATGATCCTAATCAGGCTTGTAAATTAACTTTTGAGGCTCTCTTAGCAATCA
DNA 2: TGATTGCTAAGAGAGCCTCAAAAGTTAATTTACAAGCCTGATTAGGATCATA
For B1, the activity with PAH4 Left TAL-PBx was found to be 3.6 % GFP+; with PAH4 Right TAL-PBx, 2.9 % GFP+.

B2: PAH5 target (dsDNA)
DNA 1: TTCTAGGAAACTTGAACTATGATTTTAAAAAAAGAGAAAGAAGGAAACAAAA
DNA 2: TTTTGTTTCCTTCTTTCTCTTTTTTTAAAATCATAGTTCAAGTTTCCTAGAA
B2: the activity with PAH5 Left TAL-PBx was 3.6 % GFP+; with PAH5 Right TAL-PBx it was 3.9 % GFP+.
